Reference: patent US20210388087A1 (Chugai, published 2021)

Molecular target: T1, CD3 epsilon homodimer protein (UniProt P07766 23-126)
T1 construct: immobilized on Sensor chip CM4 by amine coupling; also called CD3 (CD3 epsilon)
Assay: SPR (Biacore T200), CD3 epsilon homodimer on CM4 chip, one-arm antibody as analyte, 25 C;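 also: homodimer attached to the sensor surface via amine coupling, HBS-EP+ used as running buffer during binding runs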

T1 sequence (P07766 23-126): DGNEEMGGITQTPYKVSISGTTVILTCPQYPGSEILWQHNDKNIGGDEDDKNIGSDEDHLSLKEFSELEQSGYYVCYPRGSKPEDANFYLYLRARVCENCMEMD

| Binder | ratio of amounts bound (altered form / CE115HA000) |
| --- | --- |
| CE115HA000 W33D one-arm antibody (antibody, human IgG1, kappa, L234A L235A, N297A, name in Kabat numbering) heavy: QVQLVESGGGVVQPGRSLRLSCAASGFTFSNADMHWVRQAPGKGLEWVAQIKAKSNNYATYYAESVKGRFTISRDDSKNSLYLQMNSLKTEDTAVYYCRYVHYGAYYGVDAWGQGTTVTVSSASTKGPSVFPLAPSSKSTSGGTAALGCLVKDYFPEPVTVSWNSGALTSGVHTFPAVLQSSGLYSLSSVVTVPSSSLGTQTYICNVNHKPSNTKVDKKVEPKSCDKTHTCPPCPAPEAAGGPSVFLFPPKPKDTLMISRTPEVTCVVVDVSHEDPEVKFNWYVDGVEVHNAKTKPREEQYASTYRVVSVLTVLHQDWLNGKEYKCKVSNKALPAPIEKTISKAKGQPREPQVYTLPPSRCELTKNQVSLSCAVKGFYPSDIAVEWESNGQPENNYKTTPPVLDSDGSFFLVSKLTVDKSRWQQGNVFSCSVMHEALHNHYTQKSLSLSPDYKDDDDK EPKSSDKTHTCPPCPAPELLGGPSVFLFPPKPKDTLMISRTPEVTCVVVDVSHEDPEVKFNWYVDGVEVHNAKTKPREEQYNSTYRVVSVLTVLHQDWLNGKEYKCKVSNKALPAPIEKTISKAKGQPREPQVCTLPPSRDELTKNQVSLWCLVKGFYPSDIAVEWESNGQPENNYKTTPPVLDSDGSFFLYSKLTVDKSRWQQGNVFSCSVMHEALHNRYTQKSLSLSP light: DIVMTQSPLSLPVTPGEPASISCRSSQSLVHSNRNTYLHWYQQKPGQAPRLLIYKVSNRFSGVPDRFSGSGSGTDFTLKISRVEAEDVGVYYCGQGTQVPYTFGQGTKLEIKRTVAAPSVFIFPPSDEQLKSGTASVVCLLNNFYPREAKVQWKVDNALQSGNSQESVTEQDSKDSTYSLSSTLTLSKADYEKHKVYACEVTHQGLSSPVTKSFNRGEC | 0.1 |
| CE115HA000 W33F one-arm antibody (antibody, human IgG1, kappa, L234A L235A, N297A, name in Kabat numbering) heavy: QVQLVESGGGVVQPGRSLRLSCAASGFTFSNAFMHWVRQAPGKGLEWVAQIKAKSNNYATYYAESVKGRFTISRDDSKNSLYLQMNSLKTEDTAVYYCRYVHYGAYYGVDAWGQGTTVTVSSASTKGPSVFPLAPSSKSTSGGTAALGCLVKDYFPEPVTVSWNSGALTSGVHTFPAVLQSSGLYSLSSVVTVPSSSLGTQTYICNVNHKPSNTKVDKKVEPKSCDKTHTCPPCPAPEAAGGPSVFLFPPKPKDTLMISRTPEVTCVVVDVSHEDPEVKFNWYVDGVEVHNAKTKPREEQYASTYRVVSVLTVLHQDWLNGKEYKCKVSNKALPAPIEKTISKAKGQPREPQVYTLPPSRCELTKNQVSLSCAVKGFYPSDIAVEWESNGQPENNYKTTPPVLDSDGSFFLVSKLTVDKSRWQQGNVFSCSVMHEALHNHYTQKSLSLSPDYKDDDDK EPKSSDKTHTCPPCPAPELLGGPSVFLFPPKPKDTLMISRTPEVTCVVVDVSHEDPEVKFNWYVDGVEVHNAKTKPREEQYNSTYRVVSVLTVLHQDWLNGKEYKCKVSNKALPAPIEKTISKAKGQPREPQVCTLPPSRDELTKNQVSLWCLVKGFYPSDIAVEWESNGQPENNYKTTPPVLDSDGSFFLYSKLTVDKSRWQQGNVFSCSVMHEALHNRYTQKSLSLSP light: DIVMTQSPLSLPVTPGEPASISCRSSQSLVHSNRNTYLHWYQQKPGQAPRLLIYKVSNRFSGVPDRFSGSGSGTDFTLKISRVEAEDVGVYYCGQGTQVPYTFGQGTKLEIKRTVAAPSVFIFPPSDEQLKSGTASVVCLLNNFYPREAKVQWKVDNALQSGNSQESVTEQDSKDSTYSLSSTLTLSKADYEKHKVYACEVTHQGLSSPVTKSFNRGEC | 0.65 |
